Earlier results, collected in paper PMC4459106.

Target: KIM15-31 (HePTP) 15-31 (Homo sapiens) (UniProt P35236)

In the case of ppERK2 (from UniProt P63086), the Kd is given as 1.3 µM.
